The series can be described thus: soluble on expression in E. coli; label from the status in PepcDB or PDB records.
Turning to “MDIAKWVEHARTCYSTQLDTKIKVIGVIGKDYPDHGKGDNINCYLRENVFPVAATEDETCTIRGHFSEDDQILFLVMNGVDDVANIRKCLKSNPKSNYFDAMAESECQQIRMLHFLFISCHFIIIFEQTSRIDLELMRFLKKVNSARIQLRKKINQRLVASDLRDVSFNNRILSSAESEGRMVVPRLLIAFQRNNIRPDVNPGKKRELYEKLEKNLDNQFSDILKLYDLIDCGASSLCQLNETIPVVHLLNPKIVKRDIIGEMFEILMADAENTKISGNAGTLPSNNSFVKFLEDNFRSEKNEISLENVIELMNCLQCVLDGDLEEKHEKTAIQTFIKRIQNDHMEEARRLYTNAQRPGERRGADRFKDSEKPVKIRSKEEHLMRVEKPKKFCIFISFQNVLQFNEATHYIDSVVGVNSREALSQLQAQCNEMWQSDMRACESVSMMGRSCVRKIHPTFGDQTAPEHRWTAHDASNTMISTCVCGRKQLIRPEPFSVKEANSDFYDHPDFKCCRRLWRYQFQLYQEDSEEKDDIMWADRESNSLRAAKKMAQREDELAEEDTDLDIPESLLDPDSTSPSDEDDVRVRTMSSSESSSQESDAYLRPTSRRDESMASKTERELTIDHVKRMQKLELAGKSEDFLITVPNSMTTGKLPIFPSWHLTSLGDSSIYSHGAGLKNQPNFKIGGDYLSPVVVLLDVNFDVWNRDLNKIRSEDFSRKCGKDNKDDSARVKLFVGFEYECSRGHRFFVDYNGEPLIYSKGSNVIRESAHRSSLGNVLQADLPIRRPCTCRKLPLQSAQLQKVHVVTPKAPVHITIDPKVLIPTHEGVYGTGQEPLELHHSKYYILHLPTVYSGPSGAWMPGEFNPEKQGVWMGGALKVAYKPVMSFKW”, the “soluble on expression in E. coli” value was “not soluble”.
To “MGSDKIHHHHHHMERVALACWDDFEAQLKKLDEEANAVEDARGDVRASGYLFRGHGDADYPLQTSLERFFARPLSLADYYRLALVAKPRLEAFTGRRWELPSQEAYAAWLEGAAGSTLDDYPAYDYLAYLRHHGFPSPLLDWTQSPYVAAFFAFRYPLPGAKAVAVYAYRDAPDAKTASSGAARIHRQGPYVSSDKRHFLQQSQYTFCTRTDDAGVVGYIGHEQAFRDVSPADRIRKFLIPLSARRQALMQLNRMNINAFSLFGSEDSLVETIAISDIYLRGGDL” belongs “not soluble”; to “MAHHHHHHMPLCASIPATVDTDTNTRALYLDDLDKCMKNFSSALASTMNAYQNLLTAFDQVAQVYGNVAQECGDEVRKPVGEFRDGMRDLKDKGGFETFNHEIHVGTIAVIEPVKSDLKKALKSLKCLRLKQKEYDAVRYDLEQTEKSYAKKNKPLVTSSSYKKTLAKRDKVKTSYDASREAFGEEINALQATTKSVLLQSLNNYLHCTAAFCGQLEATMNGYRTDVDHHGSTTFTNDQMDKLKEKAEAESMARRAKRKSEASNPFQTGYDVTSNNSHRNLPSVDDGLYQKKDSLVDTESVNRYPNAEFAPPMQNGGDDNFTLREQYDDGAPGDADDVNPLVDANNDE”, “soluble”; to “MSLNLKDLIERERNCQKKKAFNCSFLDYLDIVKENPEVCKFAHKRIYDLIIKQGFHIVDKNESIKKYNFFGEDFFGIDKTLMKIVNYFYAASMEGEESKQVLYLVGPVGSGKSSIVEAIKIALEDSEPIYALENCPMREEPLHLIPNNLRRKFEKELDLKIEGDLCPVCTYRLREEFNGEIEKFPVQKIGFSIKERRGVGVVPPVDPNNQDTSVLVGSVDISKMDIYSEHDPRIFSLNGAFNVGNRGIVEFIEIFKNDIEYLHSIITATQEKLIPSPGKGSMVYYDGVIIAHSNEGEWNKFKSDPTNEAILDRIVKIEVPYCLELDEEKKIYKKILKNSNFQVHIAPHTIDVAAMFAILTRLNSSEKVDLMTKLKIYNGEEIVEKASIKKIEREELEEECRQKEGMTGVSTRFIIKAINNAICESNCSCINPIDVINSLITAVKEKDLCEEVEDKYISFLEDVVRKEYNKILYKEITKFFIESFNSQGEALFNNYLDHAEAYVNKVYLKDNITGENLDPDEEFMREIEEEIGVTENSSKGFRKDVVAYILYLIRKGEEINCNCYKPLKEAIERKLISSSREISRIINPSKIRNKAQDEKYKFIVEKLKNNGYCDTCAFYTLRYAANNFWRDEGHHHHHH”, “soluble”.
To “MQQHEIRRFVERYFAANGCTFVEASDDYLTVQLTAEMDKELMNRPFYWHYIERTGGVPQPMRLTLITRASERTDKLKGERLHFGAPRLHQLFRSAQKRGSFIRLYEEPNAPLDGNAALHPWLGMNVTISYECDRKKDEIVSLGLHLISGTIVESFHERMRERRLTPKIPDYCFTISPLIKPRSGIGRLEQYIRSRIAADNHAWADEARRRWADDLALLDEFYKDCEEKPECYYIEKEALEKQYKPRITVSVINGGLFYLLPRSS” belongs “not soluble”; to “MGSDKIHHHHHHMTVLIVTFSNDNESIPLVIKEIEARGEKAFRFDTDRYPTEVKLDIYCGDTERVIITDGEQKLDLSEVSSVWYRRMRYGQKIPDSMDKQYRDASIQECRVTVRGMIASLPGFHFDQMANVDRANNKQLQLKVAKEVGLLTPRTLTSNNPEAVKKFAQDCPQGIITKMLSSFAIYDDQGRENVVFTTPITNDDLENMEGLCFCPMTFQENIPKALELRTTIVGHHVFTAAVDSQSLQGSTYDWRKEGKNLAKNWQPYNLPEDIEKKLLKLMANFGLKYGAIDIIVTPDGRHVFLEVNPVGEFFWMEIYPPYYPISQAIAEILLTHKS”, “not soluble”; to “MGSDKIHHHHHHMKPLAYRMRPQSIDQVVGQQHLVGPKKIIRRMVEARQLSSMILYGPPGIGKTSIASAIAGSSKYAFRQLNAATDGQKELSQVAAEGKMSGTVVLLLDEIHRLNKVKQDFLLPLLESGQVIMIGATTENPYLAISPAIRSRCQIFELKPLTEEEILTAVDRALTDEERGLGKYHAKLTKEAGEFLAQKGNGDLRATLNSLELAVLSTKQELEAEGKDASSLTVTLDDMADSLQMKIQNFDADGDGHYDLLSAFQKSIRGSDTDAGLHYLGRLLESGDLVSICRRLSVIAYEDIGLANPPACERVILAVQAAQQLGLPEARIPLANAVIELCLSPKSNSAMTAIDAALADIRQSNVGQIPDQLKDAHYKGASKLGHGTGYLYPHDYPGDWVAQAYLPDRMQGKQYFAPKGESKFEAAFKSQYQRLHDLQKAGLKGK”, “not soluble”.
To “VTPYEDLLRFVLETGTPKSDRTGTGTRSLFGQQMRYDLSAGFPLLTTKKVHFKSVAYELLWFLRGDSNIGWLHEHGVTIWDEWASDTGELGPIYGVQWRSWPAPSGEHIDQISAALDLLRTDPDSRRIIVSAWNVGEIERMALPPCHAFFQFYVADGRLSCQLYQRSADLFLGVPFNIASYALLTHMMAAQAGLSVGEFIWTGGDCHIYDNHVEQVRLQLSREPRPYPKLLLADRDSIFEYTYEDIVVKNYDPHPAIKAPVAV” belongs “not soluble”.
Take “MAGDPMVTQNKKILIITGSFGNGHMQVTQSIVNQLNDMNLDHLSVIEHDLFMEAHPILTSICKKWYINSFKYFRNMYKGFYYSRPDKLDKCFYKYYGLNKLINLLIKEKPDLILLTFPTPVMSVLTEQFNINIPVATVMTDYRLHKNWITPYSTRYYVATKETKQDFIDVGIDPSTVKVTGIPIDNKFETPINQKQWLIDNNLDPDKQTILMSAGAFGVSKGFDTMITDILAKSANAQVVMICGKSKELKRSLTAKFKSNENVLILGYTKHMNEWMASSQLMITKPGGITITEGFARCIPMIFLNPAPGQELENALYFEEKGFGKIADTPEEAIKIVASLTNGNEQLTNMISTMEQDKIKYATQTICRDLLDLIGHSSQPQEIYGKVPLYARFFVKLEHHHHHH”: the “soluble on expression in E. coli” value was “not soluble”.
To “MAGDPMATLTRLFIHPVKSMRGIGLTHALADVSGLAFDRIFMITEPDGTFITARQFPQMVRFTPSPVHDGLHLTAPDGSSAYVRFADFATQDAPTEVWGTHFTARIAPDAINKWLSGFFSREVQLRWVGPQMTRRVKRHNTVPLSFADGYPYLLANEASLRDLQQRCPASVKMEQFRPNLVVSGASAWEEDSWKVIRIGDVVFDVVKPCSRCIFTTVSPEKGQKHPAGEPLKTLQSFRTAQDNGDVDFGQNLIARNSGVIRVGDEVEILATAPAKIYGAAAADDTANITQQPDANVDIDWQGQAFRGNNQQVLLEQLENQGIRIPYSCRAGICGSCRVQLLEGEVTPLKKSAMGDDGTILCCSCVPKTALKLTRLEHHHHHH” belongs “not soluble”.
To “HHHHHHGHMRTNKDRLVRISVVGEIAPAKMRSPYSVTTEGTVRVIPVLGGITYNVKVGDSAYGWAGDHVEPGVSVMARRKEEEIPLMTLSCIGNEVIVMSGDAKGSRGFVTGKHGGVNHVLVHFEEEVLGKLMVGDKILIKAWGQGLKLLDHPDVKVMNIDPDLFEKLGIQEKNGKIHVPVVAKIPAHMMGSGIGASSSASTDYDIMASNPEDLGVADLKLGDIVAIQDHDNSYGVGKYRKGAVSIGVVVHSACVSAGHGPGVVVIMTGDESKILPEEVERANISDYLVR” belongs “soluble”.
For “MQEIEQRIYLAATYDTKGEEAEYLRQLLRRDGVMVVTVDVATSGQGSPAMVSAQEVAACYPQGAQAVFTGERGSAIVAMALAFERYLAGQRDVGAVLGIGGSGGTALVTPAMRALPVGVPKLMVSTMASGNVAPYVGPSDIAMMYSVTDVAGLNRISRRVLANAAGAIAGAFRQARQPIADDGRPAVGITMFGVTTPCVQHVTAALHDRYDCLVFHATGTGGQSMEKLADSGLLAGVLDLTTTEVCDFLFGGVLACTDDRFGAIARSGVPYVGSCGALDMVNFGALDTVPAACRERLLYPHNPQVTLMRTTAQENARQGAWIAERLNRCEGQVRFLIPEGGVSALDAPGQAFYDEAADAALFQALYDHVRQTDRRRLVRVPCHINDPLFARAAVEQFHEISQ”, the “soluble on expression in E. coli” value is recorded as “not soluble”.
The entry for “MTEYNNNFDRELGWDDEITQDSVGFVQLVPGDYQFTVTNMERARHTPNPKSPGKLPACNKAVVTIQIETSEGIAQLTHNLFLHTTTEGMLSAFFGAIGQKKHGEPLKMNWNTVIGAKGVARINKRKGTGDYADREYDNIKSMIYADEVDWTKVLNKDVAQPQQMTHQQSAQPTYQGQQAQGTNFAQQPATQSYQQGQMQTPQQPQGGWGGF” is “not soluble”; for “MDMRSHEMIERRREDNGNNNGGVVISNIISTNIDDNCNGNNNNTRVSCNSQTLDHHQSKSPSSFSISAAAKPTVRYRECLKNHAASVGGSVHDGCGEFMPSGEEGTIEALRCAACDCHRNFHRKEMDGVGSSDLISHHRHHHYHHNQYGGGGGRRPPPPNMMLNPLMLPPPPNYQPIHHHKYGMSPPGGGGMVTPMSVAYGGGGGGAESSSEDLNLYGQSSGEGAGAAAGQMAFSMSSSKKRFRTKFTTDQKERMMDFAEKLGWRMNKQDEEELKRFCGEIGVKRQVFKVWMHNNKNNAKKPPTPTTTL” it is “not soluble”.
The entry for “MMNALELQALRRIFDMTIEECTIYITQDNNSATWQRWEAGDIPISPEIIARLKEMKARRQRRINAIVDKINNRIGNNTMRYFPDLSSFQSIYTEGDFIEWKIYQSVAAELFAHDLERLC” is “soluble”; for “MGSDKIHHHHHHMNTNDTELLRLFETLTTEQKIDIARHLLQNKDIKSTTVIATEEDKAISFAQPYVFAFTSNFRVFSDLDISKNEFRVLTYILEYMEFGNLINLSQSSLCKALNIASGNMSNIFKKLKQKGILVEHHGHLYINSNIFAKGLSHQLDEKRKEHLSNARSLHAELEQYPENYTDYSKQERRNLALETETKEIYTDAFIFSKKKKNNAVPNAKNSIKIDKPRKVYKRTKENEAARKDLADAKNHLKAVS” it is “not soluble”.
As to “MSNTVTLRADGRLFTGWTSVSVTRSIESVAGYFELGVNVPPGTDLSGLAPGKKFTLEIGGQIVCTGYIDSRRRQMTADSMKITVAGRDKTADLIDCAAVYSGGQWKNRTLEQIARDLCAPYGVTVRWELSDKESSAAFPGFTLDHSETVYEALVRASRARGVLMTSNAAGELVFSRAASTATDELVLGENLLTLDFEEDFRDRFSEYTVKGYARANGAEGDDIDAKSIVSRKGTATDSDVTRYRPMIIIADSKITAKDAQARALREQRRRLAKSITFEAEIDGWTRKDGQLWMPNLLVTIDASKYAIKTTELLVSKVTLILNDQDGLKTRVSLAPREGFLVPVESDRKNRKGGDSNGGIDALVEDYYRRHPEKTPPWKE”, the “soluble on expression in E. coli” value is reported as “soluble”.

The values are drawn from the DeepSol protein solubility set.
